The values that follow come from patent publication US20260226152A1 (GlaxoSmithKline, published 2026).

Test [1] addresses T1, Human IL-23 (human, UniProt Q9NPF7 20-189; P29460 23-328).
T1 construct: Disulphide-linked p19/p40 heterodimer, recombinant, made in-house; also called recombinant human IL-23; rhIL-23
T1 sequence 1: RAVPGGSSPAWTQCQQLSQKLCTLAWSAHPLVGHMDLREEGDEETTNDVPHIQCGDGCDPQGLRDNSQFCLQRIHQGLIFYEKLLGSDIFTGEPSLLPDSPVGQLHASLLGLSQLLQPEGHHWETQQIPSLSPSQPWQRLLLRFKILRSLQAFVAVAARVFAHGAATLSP
T1 sequence 2: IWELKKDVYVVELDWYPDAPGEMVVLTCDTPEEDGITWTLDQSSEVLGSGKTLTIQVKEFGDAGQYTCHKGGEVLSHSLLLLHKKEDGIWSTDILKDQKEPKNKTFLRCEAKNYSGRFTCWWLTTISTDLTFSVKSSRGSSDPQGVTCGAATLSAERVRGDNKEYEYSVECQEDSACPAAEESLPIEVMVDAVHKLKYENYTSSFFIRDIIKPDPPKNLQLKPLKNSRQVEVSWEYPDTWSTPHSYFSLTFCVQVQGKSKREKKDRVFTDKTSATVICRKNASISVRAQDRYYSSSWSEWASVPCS
As to the kind of experiment: SPR (Biacore), antibody captured on Protein A/G, cytokine as analyte, 25 C, 1:1 fit, n=1. Here is the method: (§1) A heterodimeric bsAb, alongside anti-IL-18 and anti-IL-23 common light chain control bispecific antibodies, were assessed for binding to human and cyno IL-18 and IL-23, using the Biacore 8K and T200 (Cytiva) surface plasmon resonance (SPR) instruments. All reagents were generated recombinantly in-house with the exception of Rhesus monkey IL-18 which was purchased from R&D systems (Cat #2548-RM-025/CF). Rhesus and cynomolgus monkey amino acid sequences are identical. Therefore, the protein will be referred to as cynomolgus monkey IL-18.
(§2) Heterodimeric bsAb, anti-IL-18 and anti-IL-23 common light chain bispecific control molecules were assessed for binding to recombinant human and cynomolgus monkey IL-18 and IL-23 using the Biacore 8K and T200 (Cytiva) SPR instruments. The antibodies were captured onto Protein A/G, which was immobilised onto flow cell 2 of 8 channels (Biacore 8K) or flow cells 2, 3 and 4 (Biacore T200) of a CM5 series S sensor chip by primary amine coupling. The IL-18 or IL-23 analytes were passed over the captured antibodies at varying concentrations between 0.04-25 nM. The association phase was for 240 seconds at 30 μl/min, followed by a dissociation step of up to 1200 seconds. A 0 nM (i.e., buffer alone) injection was used to double reference the binding curves. Regeneration of the chip surface between cycles was carried out using 50 mM NaOH. The assay was run at 25° C. in HBS-EP⁺ buffer. Biacore 8K control software version 3.0 was used to run the experiment. Data was analysed using Biacore 8K Insight evaluation software version 3.0. Biacore T200 control software version 1.0 was used to run the experiment. Data was analysed using Biacore T200 evaluation software version 2.0. Affinities and kinetics were determined using the 1:1 kinetic fit inherent to the software where possible. All affinity values generated using both instruments were combined to determine geometric mean values.
(In general: In SPR one partner is held on a chip, and binding of the other changes the refractive index at the surface.)

Test [2] has as its target T1, Human IL-23. In words: cell-based or functional assay.
The target of test [3] is T2, Human IL-18 (human, UniProt Q14116 37-193).
T2 construct: Recombinant, made in-house; In the BLI assay the loaded cytokine was captured on anti-Penta His sensors, so a His tag is implied but not described; also called recombinant human IL-18; interleukin 18
T2 sequence: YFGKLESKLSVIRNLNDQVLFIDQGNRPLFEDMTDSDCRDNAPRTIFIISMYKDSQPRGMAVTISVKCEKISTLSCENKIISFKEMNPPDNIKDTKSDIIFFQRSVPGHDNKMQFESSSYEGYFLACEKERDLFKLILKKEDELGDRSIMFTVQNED
As to the kind of experiment: SPR (Biacore), antibody captured on Protein A/G, cytokine as analyte, 25 C. Here is the method: as §1, §2

In test [4] the target is T1, Human IL-23. As to the kind of experiment: cell-based or functional assay. This is another data set of the same source.
The target in the next test is T3, Human recombinant IL-12 (human, UniProt P29459 23-219).
T3 sequence 1: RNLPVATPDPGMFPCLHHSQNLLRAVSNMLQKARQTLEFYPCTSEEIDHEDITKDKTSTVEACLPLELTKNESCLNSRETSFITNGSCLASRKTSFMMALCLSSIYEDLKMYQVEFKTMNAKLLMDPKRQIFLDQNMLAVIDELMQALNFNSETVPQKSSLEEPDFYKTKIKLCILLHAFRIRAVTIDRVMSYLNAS
T3 sequence 2: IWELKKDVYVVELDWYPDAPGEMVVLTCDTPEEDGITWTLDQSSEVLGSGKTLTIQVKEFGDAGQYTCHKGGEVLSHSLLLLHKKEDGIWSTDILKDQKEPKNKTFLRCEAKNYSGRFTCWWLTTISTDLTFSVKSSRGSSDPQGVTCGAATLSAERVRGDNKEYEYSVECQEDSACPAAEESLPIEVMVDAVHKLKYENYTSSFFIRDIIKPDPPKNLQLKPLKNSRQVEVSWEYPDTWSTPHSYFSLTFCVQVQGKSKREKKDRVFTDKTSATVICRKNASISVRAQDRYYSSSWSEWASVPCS
As to the kind of experiment: cell-based or functional assay.

The target in test [5] is T2, Human IL-18. In words: cell-based or functional assay.

B1: IL-23 control 3 (antibody, V domains shown)
VH: QVQLVQSGAEVKKPGASVKVSCKASGYIFITYWMTWVRQAPGQGLEWMGQIFPASGSADYNEKFEGRVTMTTDTSTSTAYMELRSLRSDDTAVYYCARGGGGFAYWGQGTLVTVSS
VL: DIQMTQSPSSLSASVGDRVTITCRTSENIYSYLAWYQQKPGKAPKLLIYNAKTLAEGVPSRFSGSGSGTDFTLTISSLQPEDFATYYCQHHYGIPFTFGQGTKVEIK
notes: Anti-IL-23 (tildrakizumab) plus Het-mAb Fc mutations of Heterodimeric bsAbs 1-4 and half-life extending (YTE) mutations; also called tildrakizumab variable domains
By Kd is commonly meant the constant that tells how readily two partners part at equilibrium. Low readings indicate a tighter complex, high ones a looser complex. For B1, binding with Human IL-23 [1] was characterised by a dissociation constant (Kd) of 0.576 nM. In the test with Human IL-23 [2], the “IC50 Parent (pM), inhibition of IL-23-induced pSTAT3 in T cells of human whole blood (run with Heterodimeric bsAb-3)” value is 637 pM. Besides, the binding result with Human IL-18 [3] is given as “no binding (tested: 0.04-25 nM analyte)”. Besides, the “IC50 Parent (pM), inhibition of human IL-23-induced mouse IL-17A secretion in mouse splenocytes (run with Heterodimeric bsAb-3)” value with Human IL-23 [4] was determined as 687 pM.

B2: Ustekinumab (antibody, V domains shown)
VH: EVQLVQSGAEVKKPGESLKISCKGSGYSFTTYWLGWVRQMPGKGLDWIGIMSPVDSDIRYSPSFQGQVTMSVDKSITTAYLQWNSLKASDTAMYYCARRRPGQGYFDFWGQGTLVTVSS
VL: DIQMTQSPSSLSASVGDRVTITCRASQGISSWLAWYQQKPEKAPKSLIYAASSLQSGVPSRFSGSGSGTDFTLTISSLQPEDFATYYCQQYNIYPYTFGQGTKLEIK
As to B2, in the test with Human recombinant IL-12, the “IC50 (pM), inhibition of IL-12-induced IFNγ secretion by NK-92 cells” value was 875 pM and the “IC50 (ug/mL), inhibition of IL-12-induced IFNγ secretion by NK-92 cells” value amounted to 0.13 µg/mL.

B3: IL-23 control 2 (antibody, V domains shown)
VH: QVQLVQSGAEVKKPGSSVKVSCKASGYTFTDQTIHWMRQAPGQGLEWIGYIYPRDDSPKYNENFKGKVTITADKSTSTAYMELSSLRSEDTAVYYCAIPDRSGYAWFIYWGQGTLVTVSS
VL: DIQMTQSPSSLSASVGDRVTITCKASRDVAIAVAWYQQKPGKVPKLLIYWASTRHTGVPSRFSGSGSRTDFTLTISSLQPEDVADYFCHQYSSYPFTFGSGTKLEIK
notes: Anti-IL-23 (risankizumab) mAb plus Het-mAb Fc mutations of Heterodimeric bsAbs 1-4 and silencing (LAGA) mutations; also called risankizumab variable domains
Regarding B3, in the test with Human IL-23 [1], the Kd stood at 0.163 nM. Besides, the “pIC50 (GeoMean), neutralisation of human IL-18-induced IFNγ secretion by KG-1 cells” value with Human IL-18 [5] is below 8.48. Also, in the test with Human IL-23 [2], the “IC50 Parent (pM), inhibition of IL-23-induced pSTAT3 in T cells of human whole blood (run with Heterodimeric bsAb-1)” value was found to be 282 pM and the “IC50 Parent (pM), inhibition of IL-23-induced pSTAT3 in T cells of human whole blood (run with Heterodimeric bsAb-2)” value turned out to be 286 pM. Further, in the test with Human IL-18 [3], the binding result is given as “no binding (tested: 0.04-25 nM analyte)”. In the test with Human IL-23 [4], the “IC50 Parent (pM), inhibition of human IL-23-induced mouse IL-17A secretion in mouse splenocytes (run with Heterodimeric bsAb-1)” value is 60 pM and the “IC50 Parent (pM), inhibition of human IL-23-induced mouse IL-17A secretion in mouse splenocytes (run with Heterodimeric bsAb-2)” value came out at 53.3 pM.
